{"source": "patent US10676765B2", "about": "“Methods for producing 3-hydroxy-3-methylbutyric acid” (Global Bioenergies, priority 2015, dated 2020)", "type_in_all_cases": "biochemical", "key": {"[1]": {"assay": "Enzyme-catalyzed hydrolysis of 3-methylcrotonyl-CoA into 3-methylcrotonic acid and free coenzyme A", "details": "10 mM 3-methylcrotonyl-CoA, 1 mg/ml thioesterase, 30 min, 30° C.", "excerpt": "The gene coding for acyl-CoA thioesterase II from Pseudomonas putida was synthesized according to the procedure as described in Example 1.\nThe vector pCA24N which contained the gene encoding acyl-CoA thioesterase 2 (TesB) from Escherichia coli was purchased from NAIST (Nara Institute of Science and Technology, Japan, ASKA collection). This vector provided contained a stretch of 6 histidine codons after the methionine initiation codon.\nThe corresponding enzymes were produced according to the procedure described in Example 1.\n(§1) The enzymatic assays were conducted in a total reaction volume of 0.2 ml.\n(§2) The standard reaction mixture contained:\n10 mM 3-methylcrotonyl-CoA (Sigma-Aldrich)\n1 mg/ml of purified recombinant thioesterase.\nControl assays were performed in which either no enzyme was added or no substrate was added.\nThe assays were incubated for 30 min with shaking at 30° C., the reactions were stopped by the addition of 0.1 ml of acetonitrile and the samples were then analyzed by HPLC-based procedure.\nHPLC analysis was performed using an 1260 Infinity LC System (Agilent), equipped with a column heating module and a UV detector (210 nm). […] The separation was performed using mixed A (H2O containing 8.4 mM sulfuric acid) and B (acetonitrile) solutions in a linear gradient (0% B at initial time 0 min→70% B at 8 min). […]"}, "[2]": {"assay": "Enzyme-catalyzed hydrolysis of 3-hydroxyisovaleryl-CoA into 3-hydroxyisovaleric acid", "details": "10 mM 3-hydroxyisovaleryl-CoA, 1 mg/ml thioesterase, 30 min, 30° C.", "description": "The gene coding for acyl-CoA thioesterase II from Pseudomonas putida was synthesized and the corresponding enzymes were further produced according to the procedure described in Example 1.\nProvided vectors contained a stretch of 6 histidine codons after the methionine initiation codon. The corresponding enzymes were further produced according to the procedure described in Example 1.\n(§3) The enzymatic assays were conducted in total reaction volume of 0.2 ml\nas §2\n10 mM 3-hydroxyisovaleryl-CoA\n1 mg/ml of purified thioesterase\nThe assays were incubated for 30 min with shaking at 30° C. and the reactions were stopped by the addition of 0.1 ml of acetonitrile. The amount of 3-hydroxyisovaleryl-CoA was quantified according to HPLC-based procedure described in Example 3.\nIn these conditions, the 3-hydroxyisovaleryl-CoA retention time was 4.40 min and coenzyme A (CoA) retention time was 3.96 min.\nAdditionally, 3-hydroxyisovaleric acid production was analyzed according to the procedure described en Example 6."}, "[3]": {"assay": "Formation of 3-hydroxyisovaleryl phosphate from 3-hydroxyisovaleryl-CoA and phosphate (MS)", "details": "10 mM 3-hydroxyisovaleryl-CoA, mass spectrometry", "description": "The studied enzymatic reaction was carried out under the following conditions:\n10 mM 3-hydroxyisovaleryl-CoA (3-hydroxy-3-methylbutyryl-CoA)\nThe purified phosphate butyryltransferase from B. subtilis was resuspended in 5 mM potassium phosphate pH 7.5.\nA control assay without enzyme was performed in parallel.\nThe enzymatic assay was initiated by the addition of 20 μl of enzyme preparation into 20 μl of reaction mixture. The formation of 3-hydroxyisovaleryl phosphate (3-hydroxy-3-methylbutyryl phosphate) was analyzed by Mass Spectrometry (MS). 5 μl of the assay was introduced into the mass spectrometer via a loop injection.\nFlow injection analyses were performed using a Dionex Ultimate chromatographic system (Thermo Fisher Scientific) at a flow rate of 100 μL/min with a mobile phase composed of H2O containing 10 mM ammonium formate pH 9.45 and acetonitrile 75:25 v/v. Detection was performed with a Q-exactive spectrometer (Thermo Fisher Scientific) fitted with an electrospray ionization source (negative ionization mode at a resolution of 70000 m/Δm, FWHM at m/z 200). Non-resonant induced dissociation experiments—Higher-energy C-trap dissociation (HCD)—were acquired at normalized collision energy of 10%. Raw data were manually inspected using the Qualbrowser module of Xcalibur version 3.0 (Thermo Fisher Scientific). […]"}, "[4]": {"assay": "Conversion of 3-hydroxyisovaleryl-CoA and ADP into 3-hydroxyisovaleric acid and ATP, phosphate butyryltransferase from Bacillus subtilis with butyrate kinases", "details": "4 mM 3-hydroxyisovaleryl-CoA, 4 mM ADP, 0.2 mg/ml each enzyme, 20 min, 30° C.", "description": "as §1, §2\n(§4) 50 mM potassium phosphate buffer pH 7.5\n4 mM 3-hydroxyisovaleryl-CoA\n(§5) 0.2 mg/ml of purified phosphate butyryltransferase from Bacillus subtilis\n(§6) 0.2 mg/ml of purified butyrate kinase from Lactobacillus casei or Geobacillus sp.\nA series of controls were performed in parallel (Assays C-H; Table 4).\nThe assays were then incubated for 20 min with shaking at 30° C.\nAfter an incubation period, the reactions were stopped by heating the reaction medium 4 min at 90° C. The samples were centrifuged, filtered through a 0.22 μm filter and the clarified supernatants were transferred into a clean vial for further analysis. The consumption of ADP and 3-hydroxyisovaleryl-CoA, and the formation of ATP, 3-hydroxyisovaleric acid and free coenzyme A (CoA-SH) were followed by using HPLC-based methods.\nHPLC analysis was performed using 1260 Infinity LC System (Agilent), equipped with column heating module and RI detector. 2 μl of samples were separated on Polaris C18-A column (150×4.6 mm, 5 μm particle size, column temp. 30° C.) with a mobile phase flow rate of 1.5 ml/min. The separation was performed using 8.4 mM sulfuric acid in H2O/MeOH mixed solution (99/1) (V/V). In these conditions, the retention time of ADP, ATP and 3-hydroxyisovaleric acid were 2.09 min, 2.26 min and 5.01 min, respectively. […]"}, "[5]": {"assay": "Conversion of 3-methylcrotonyl-CoA and ADP into 3-methylcrotonic acid and ATP, phosphate butyryltransferase from Bacillus subtilis with butyrate kinases", "details": "4 mM 3-methylcrotonyl-CoA, 4 mM ADP, 0.2 mg/ml each enzyme, 20 min, 30° C.", "description": "as §1, §2, §4\n4 mM 3-methylcrotonyl-CoA\nas §5, §6\nAssays were then incubated for 20 min with shaking at 30° C.\nAfter an incubation period, the reactions were stopped by heating the reaction medium 4 min at 90° C. The samples were centrifuged, filtered through a 0.22 μm filter and the clarified supernatants were transferred into a clean vial for further analysis. The consumption of ADP and 3-methylcrotonyl-CoA, and the formation of ATP, 3-methylcrotonic acid and free coenzyme A (CoA-SH) were followed by using HPLC-based methods.\nHPLC analysis was performed using the 1260 Infinity LC System (Agilent) equipped with a column heating module and an RI detector. 2 μl of samples were separated on a Polaris C18-A column (150×4.6 mm, 5 μm particle size, column temp. 30° C.) with a mobile phase flow rate of 1.5 ml/min. The consumption of ADP and the formation of ATP were followed by HPLC analysis according to the methods described in Example 10.\nHPLC analysis was performed using the 1260 Infinity LC System (Agilent) equipped with a column heating module and a UV detector (260 nm). […]"}, "[6]": {"assay": "Kinetic studies of the hydration reaction of 3-methylcrotonyl-CoA", "details": "0-4 mM 3-methylcrotonyl-CoA, 0.01 mg/ml enzyme, 30° C., pH 7.0", "description": "as §3, §2\n0-4 mM 3-methylcrotonyl-CoA\n0.01 mg/ml 3-hydroxypropionyl-CoA dehydratase from Metallosphaera sedula.\nAssays were incubated for 0, 2, 4, 8, 16 min with shaking at 30° C. and the reactions were stopped by the addition of 100 μl of acetonitrile. The amount of 3-hydroxyisovaleryl-CoA was quantified according to HPLC-based procedure described in Example 3.\nThe graph depicting 3-hydroxyisovaleryl-CoA formation as a function of time at different substrate concentrations is shown in the FIG. 15."}}}
{"molecule": "tesB Escherichia coli: acyl-CoA thioesterase 2 from E. coli, Uniprot P0AGG2 (protein, listed as Escherichia coli, strain K12, acyl-CoA thioesterase 2 from E. coli, Uniprot P0AGG2) MSQALKNLLTLLNLEKIEEGLFRGQSEDLGLRQVFGGQVVGQALYAAKETVPEERLVHSFHSYFLRPGDSKKPIIYDVETLRDGNSFSARRVAAIQNGKPIFYMTASFQAPEAGFEHQKTMPSAPAPDGLPSETQIAQSLAHLLPPVLKDKFICDRPLEVRPVEFHNPLKGHVAEPHRQVWIRANGSVPDDLRVHQYLLGYASDLNFLPVALQPHGIGFLEPGIQIATIDHSMWFHRPFNLNEWLLYSVESTSASSARGFVRGEFYTQDGVLVASTVQEGVMRNHN", "values": [{"measurement": "3-methylcrotonic acid produced", "setting": "[1]", "value": 0.6, "unit": "mM"}, {"measurement": "Conversion, %", "setting": "[2]", "value": 52, "unit": "%"}]}
{"molecule": "tesB Pseudomonas putida: acyl-CoA thioesterase II from Pseudomonas putida, Uniprot Q88DR1 (protein, listed as Pseudomonas putida) MSHVLDDLVDLLSLESIEENLFRGRSQDLGFRQLYGGQVLGQSLSAASQTVEDARHVHSLHGYFLRPGDASLPVVYSVDRVRDGGSFSTRRVTAIQKGQTIFTCSASFQYDEEGFEHQAQMPDVVGPENLPTEVELAHAMADQLPERIRDKVLCAKPIEIRPVTERDPFNPKPGDPVKYAWFRADGNLPDVPALHKYMLAYASDFGLLTTALLPHGKSVWQRDMQIASLDHSLWFHGNLRADQWLLYATDSPWAGNSRGFCRGSIFNQAGQLVASSSQEGLIRHRKDWA", "values": [{"measurement": "3-methylcrotonic acid produced", "setting": "[1]", "value": 3.1, "unit": "mM"}, {"measurement": "Conversion, %", "setting": "[2]", "value": 58, "unit": "%"}]}
{"molecule": "phosphate butyryltransferase from Bacillus subtilis: phosphate butyryltransferase (EC 2.3.1.19) from Bacillus subtilis (strain 168), Uniprot P54530 (protein, listed as Bacillus subtilis, strain 168, phosphate butyryltransferase (EC 2.3.1.19) from Bacillus subtilis (strain 168), Uniprot P54530) MKLKDLIGKASIHKNKTIAVAHAEDEEVIRAVKLAAEHLSARFLLTGDSKKLNELTSSMQGHQVEIVHANTPEESAKLAVRAVHHKTADVLMKGNVPTSVLLKAVLNRQEGLRSASVLSHVAVFDIPDFDRLMFVTDSAMNIAPSLEELRQILQNAVHVAHAVGNNMPKAAALAAVETVNPKMEATVNAAALAQMYKRGQIKGCIVDGPLALDNAVSQIAAAQKKISGDVAGNADILLVPTIEAGNILYKSLIYFAKASVAAVITGAKAPIALTSRADSAENKLYSIALAICASEEYTH", "values": [{"measurement": "generation of 3-hydroxyisovaleryl phosphate", "setting": "[3]", "value": "generation of 3-hydroxyisovaleryl phosphate in the enzyme catalyzed assay was proved by MS technique"}, {"measurement": "production of 3-hydroxyisovaleric acid and ATP", "setting": "[4]", "value": "significant production of 3-hydroxyisovaleric acid, without simultaneous generation of ATP"}, {"measurement": "production of 3-methylcrotonic acid and ATP", "setting": "[5]", "value": "significant production of 3-methylcrotonic acid without a simultaneous generation of ATP"}]}
{"molecule": "3-Hydroxypropionyl-CoA dehydratase from Metallosphaera sedula: recombinant His-tagged 3-hydroxypropionyl-CoA dehydratase (EC 4.2.1.116) from Metallosphaera sedula, Uniprot A4YI89 (protein, listed as Metallosphaera sedula, His tag; strain ATCC 51363 /DSM 5348, recombinant His-tagged 3-hydroxypropionyl-CoA dehydratase (EC 4.2.1.116) from Metallosphaera sedula, Uniprot A4YI89) MEFETIETKKEGNLFWITLNRPDKLNALNAKLLEELDRAVSQAESDPEIRVIIITGKGKAFCAGADITQFNQLTPAEAWKFSKKGREIMDKIEALSKPTIAMINGYALGGGLELALACDIRIAAEEAQLGLPEINLGIYPGYGGTQRLTRVIGKGRALEMMMTGDRIPGKDAEKYGLVNRVVPLANLEQETRKLAEKIAKKSPISLALIKEVVNRGLDSPLLSGLALESVGWGVVFSTEDKKEGVSAFLEKREPTFKGK", "values": [{"measurement": "Km", "setting": "[6]", "value": 300, "unit": "µM"}, {"measurement": "kcat for 3-methylcrotonyl-CoA", "setting": "[6]", "value": 10, "unit": "s⁻¹"}]}
